From paper PMC3596245 come the findings set out here.

Read-outs that look alike come from different tables or passages of the source.

Test [1] addresses NMMIIA rod filaments (residues 1338-1960) (human) (UniProt P35579). In words: co-sedimentation.
Test [2] has the same target. Put plainly: co-sedimentation. The source holds these as a separate data set.

In general, Kd refers to a measure of binding affinity in units of concentration. Low readings indicate tighter binding, high ones weaker binding.

Turning to “GST-gelsolin C-terminal half (G4-G6) (domain or fragment)”, the Kd in test [1] turned out to be 1.31 µM; in test [2], 0.212 µM.

On to “GST-gelsolin N-terminal half (G1-G3) (domain or fragment)”, for which the Kd was found to be 0.495 µM in test [1] and 0.22 µM in test [2].

Turning to “GST-gelsolin full-length (G1-G6) (from UniProt P06396 28-782) (natural protein)”, the values for the Kd in test [1] and in test [2] were 0.423 µM and 0.158 µM, respectively.
